Test results from patent US20080248046A1 (Human Genome Sciences, published 2008).

Columns and labels:
[1] = molecular target: T1, DR5 expressed from an expression construct in 293 cells (immunoprecipitated with Flag M2 antibody affinity … (human, UniProt O14763 52-440)); test: co-transfection of 293 cells, Flag M2 immunoprecipitation, immunoblot with HRP-conjugated antibody to myc
T1 construct: The text says only 'the indicated expression constructs'; also called Death Domain Containing Receptor 5
Text: (§1) 293 cells were co-transfected with the indicated expression constructs using calcium phosphate precipitation.

[2] = molecular target: T1, DR5 expressed from an expression …; test: co-transfection of 293 cells, Flag M2 immunoprecipitation, immunoblot with polyclonal antibody to FADD
Text: as §1

Row | binding result [1] | binding result [2] | Binder
1 | no binding |  | myc-tagged TRADD (other, UniProt Q15628 1-312, looked up, also called myc-TRADD) MAAGQNGHEEWVGSAYLFVESSLDKVVLSDAYAHPQQKVAVYRALQAALAESGGSPDVLQMLKIHRSDPQLIVQLRFCGRQPCGRFLRAYREGALRAALQRSLAAALAQHSVPLQLELRAGAERLDALLADEERCLSCILAQQPDRLRDEELAELEDALRNLKCGSGARGGDGEVASAPLQPPVPSLSEVKPPPPPPPAQTFLFQGQPVVNRPLSLKDQQTFARSVGLKWRKVGRSLQRGCRALRDPALDSLAYEYEREGLYEQAFQLLRRFVQAEGRRATLQRLVEALEENELTSLAEDLLGLTDPNGGLA
2 |  | no binding | FADD (other, UniProt Q13158 1-208, looked up, also called FADD/MORT1) MDPFLVLLHSVSSSLSSSELTELKFLCLGRVGKRKLERVQSGLDLFSMLLEQNDLEPGHTELLRELLASLRRHDLLRRVDDFEAGAAAGAAPGEEDLCAAFNVICDNVGKDWRRLARQLKVSDTKIDSIEDRYPRNLTERVRESLRIWKNTEKENATVAHLVGALRSCQMNLVADLVQEVQQARDLQNRSGAMSPMSWNSDASTSEAS
